The results in this text go back to the domain aggregation screens of Martell et al. (2025).

This series can be described thus: soluble fraction after stress (log2 fold change); higher = more stays soluble; pooled small domains, quantitative proteomics. The settings on record: stress: 50 degC. The method in brief: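 After stress at 50°C, the amount of each protein still soluble was measured. This was done on pooled custom libraries of small protein domains, using high-throughput quantitative proteomics. The figure given is a base-two log fold change and stands for aggregation propensity, with higher values meaning more protein stays in solution.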
With “HMHADIAATVVATMRQLGVLGLPRNYEIFYEALSGTNRELSLAVVSLSNRPTQDDLDRIGRRFFA”, the “soluble fraction (log2)” value was -0.785.

With “HMSKQLGFKIKTARRKLNISQGDLSKKLEISPSYLNLIESGKRKVSTDLLMKASEILNLDLKKL”, the “soluble fraction (log2)” value is -0.281.

Regarding “HMEHIEVDTSHIAVGSKVKHKAFGLGEITDKGNTYVFVKFDGQAIPKKFQFPGAFTQGFLTK”, the “soluble fraction (log2)” value stood at 0.144.

With “HMPRRSYLDARKKLLGMLNSPDFNSGDQIPAERELSEVLGISRVTVRKIITELIDEGVLERRGNQGTWLVD”, the “soluble fraction (log2)” value was -0.378.

Regarding “HMGMLATFVTSAKVPDDVVYAITKEVFENLDEFKKLHPALEGLTRETMLEGLTAPIHPGALKYYKEAGLM”, the “soluble fraction (log2)” value is -0.522.

For “HMKDNIRSILEDIPNIGPGRRRALLKHFGSIEAIRRASLEDLIKVDGMNRNAALSIMEYFGM”, the “soluble fraction (log2)” value is -0.159.

On to “HMRLLGEPLAGRLKKDVPVVTGRSTESKAIAQFFELRWSHLPDPEARTISVASGRIDFMDVGATRFSLR”, for which the “soluble fraction (log2)” value was 0.054.

Consider “HMKEIATKSELTYFIQRLLDLLEETNFFNPEERKKAMINHIEAIFRRNNLTLQELNMLHGIITSITR”, for which the “soluble fraction (log2)” value is -2.62.

In the case of “HMPSNVKIPDVTGKTVAQARSAIEAAGLKVGKEKDEYSDSAKKDSVIRTNPQAGTQRREGSTVDLIVS”, the “soluble fraction (log2)” value is 0.122.

“HMRFDADELQKAYDLFDADENTPFKTIKQAYYALARRHHPDKNGDQEYFKVINNAFQLIQEHRRRRDN”: the “soluble fraction (log2)” value was -0.246.

Regarding “HMIIVMKRNATETQIDHVVRWVESIGYRAHRSNGTEQTVVKAVGGERGGEELKYLAALSGVEKVVPIR”, the “soluble fraction (log2)” value is -0.0291.

Consider “HMARDSYNGVQRTISTLLGQGNYDRAYDVAVGARGQMSKQQWSDVAKRIYEVSGIKIDDSVKY”, for which the “soluble fraction (log2)” value came to 0.159.

In the case of “HMKAMIIVMKPGADMATISKVLKTIETNGFKPHLSKGEETTVIGVIGDERKLNPDIFSTLEGVERIVPVA”, the “soluble fraction (log2)” value came out at 0.255.

As to “HMATPAFEMYKVRRGDTPAGLAKEWGFPDMASFYRINPDARSDWKRGLQLVKPMNEMAVLQATA”, the “soluble fraction (log2)” value was -0.255.

As for “HMAKNDSGLNNHTFNTIRDALQKALTDGPQEAKKLTENLPFPADKIITVIRYLADHDEHFSLEDGIISLT”, the “soluble fraction (log2)” value came to 0.24.

Regarding “HMPNPALESARPAFEAFLSRFSDGEAMRGPAWGLWSLLHRKGNAPTASHAAGRDGMGVLAFLRHWQWG”, the “soluble fraction (log2)” value is -0.479.

“HMDGVTEYTVKSGDSFSAIINKHYNVNYDEKLMQAVAAYNNIEDMNKLQLGQIIKLPPKEQLNL”: the “soluble fraction (log2)” value was determined as 0.0199.

On to “HMSFKQARFMMDAANGKALAWLYSHAEVLDRKDQGENIEIHVMISPADLSRFVNAFGYQPVQS”, for which the “soluble fraction (log2)” value is -0.2.

With “HMAIDLSLIPGNLLRELHGAVEDGDMYRIRELIRSISAVDEKVGKELLLLAERYDYERLLELVND”, the “soluble fraction (log2)” value is -0.384.

For “HMEVAVQFIEFKIPENHAWIGKEIREITFPPESILVLIIRDGKKLVPNGKTVLKEGDSLILSGKASD”, the “soluble fraction (log2)” value was -0.538.

As for “HMQLNNTDELEKIILKILENNPKQVDQFLAGKQKLLGFFVGQAMRATSGKANPKTVNDLLEKFLSK”, the “soluble fraction (log2)” value is -0.0714.

“HMQIKNVDYGTFLDMLDEKNVKEVEIEDEQIVFTDNADPTGYYTTGRMEDPDLVDRLHNSGATFSAI”: the “soluble fraction (log2)” value is -0.12.

As to “HMDDVGYLRKRLQQALAQLSDDLRNTYTLFQIGKQSIKQIAAETGASESLVKVRIHRAKQKLQELLADLQ”, the “soluble fraction (log2)” value was -0.987.

For the sequence “HMQNDDLTKLDGIGPYIEQRLNDIGIYNYEQLSKLNTEDIQKITELIDFFPGRIERDNWVSQAQLLKI”, the “soluble fraction (log2)” value is -0.316.

On to “HMRKLTDRQRQILDLIKTIIAETGAPPTRAEISTALGFKSANAAQEHLQALAQKGMIDLVSGASRGIRLRG”, for which the “soluble fraction (log2)” value is -0.379.

Take “HMESEAKLGVAFNGKTRFDMTFPADADNKTIEEAVLADERAQKYLEGFQVAKVIIVPKRMVNIVLK”: the “soluble fraction (log2)” value turned out to be 0.24.

Consider “HMAKQQTTTTAHVVTTGETLYSIAQKNGISVEELKKSNNITSDKLRPGQTLHITKVSKTSSTAK”, for which the “soluble fraction (log2)” value worked out at 0.365.

Turning to “HMLDLVSIGKRIKAERQKNGLTQEALAERIEVSAHYVYELERGLKAMSVPILLRMSEVLHTSTDYLLF”, the “soluble fraction (log2)” value is -2.9.

“HMDYKAELDNIIRDHLDMEGPLLPVLHAVMARFSYIPKDAIPIIARKLNLSSAEVSGVISFYHDFKKEK”: the “soluble fraction (log2)” value was -0.561.

Turning to “HMTVLPTEQDAKALVGLGEEEAAKIVEGNGWTYRIGSRDGEQFMLTEDFVTSRLTLGIEKAIVMTATI”, the “soluble fraction (log2)” value was -0.915.

As for “HMSAPTAFSERELELLAGMRRGASNKAMAEQLFISVNTVKYHRANLMRKLGARDRNEALEVAARLG”, the “soluble fraction (log2)” value was -0.0071.

For “HMNDTSLIIDNLMLKLGNNIKNFSEIYSLLRKNLAEYGEEFIKSKVDYVLKNFNDNIEENLKKLLTE”, the “soluble fraction (log2)” value was -0.218.

Consider “HMEIESAHAQVLGVREIAASGATQHWIAFRFSDGHQRELLATPSQADVIFRGQQGVVHFAGDRLTGWIPE”, for which the “soluble fraction (log2)” value was -0.191.

For the sequence “HMGQLTDKQILLFSGKLAYEPTFASKYSKAGESYDDFIIRISGDLTDPKKIKEYSPYLKELGF”, the “soluble fraction (log2)” value was -0.161.

With “HMEKSQIHLIHTRYVNPEQLVPILSMVIPAENIYVKSDSNLIIINGSSEMLREVESIVSKLDVPS”, the “soluble fraction (log2)” value came out at 0.0228.

Turning to “HMENYQIETFVKFIEESTGEDGVAFEDLFQNFTSRPAVITMFLALLEALRRNSIRIFQKEEFSQILIYPK”, the “soluble fraction (log2)” value is 0.084.

On to “HMSGSKEQQIVILNNILERQLQAFGLQGNREFPMVTLKNIYNSLSKIIENAGLKNVENYFVNPEQGKQM”, for which the “soluble fraction (log2)” value was -0.256.

On to “HMLRISLAAARVNAEMTQEDVAREMHVSKNTVVNWEKGKSEPTISQSRELSKLYNMPLEYIFYL”, for which the “soluble fraction (log2)” value is -3.05.

With “HMRVDLVQRLARHGLSPRQSAVAGGVLRGLDNGEISRQLYIAEQTVKDHLHEIYHRLGVHTRTELLIKVLG”, the “soluble fraction (log2)” value is -1.6.

Turning to “HMEQYFEDEELNDKFLEFLAMRKRVRKPVQTDRGMKMLLTSLHKLSGGDVGLMKQIIDQSLDNEWKKFVA”, the “soluble fraction (log2)” value was -0.673.

As for “HMLTSIDQMLKLAMPDSDITVSKMNGLILLTGTVKAPEDAAEAERLVQAFSAPPPGQPPVTVVSRLRTA”, the “soluble fraction (log2)” value was 0.0549.

On to “HMTTVTVGSKVRVKAGATFSDGAKPFAEVYNTVYDVQLLSHNGKEARIGIGDQWTGWIYISDLYLANQPAP”, for which the “soluble fraction (log2)” value is -0.102.

Regarding “HMSAQDLIVKTDATQVEARVLEISPEQIRYKRFSNPDGPTYVLPVDAVDYIRYANGETDSFR”, the “soluble fraction (log2)” value is -0.0039.

For the sequence “HMSMSKISNLLEIMMIIQYKGLTTASELAQSLGVDKKTVYRYINSLSKANIPIYTKKGRYGGFYIDKNF”, the “soluble fraction (log2)” value is -1.19.

On to “HMSDKNVYGKYKNVFLSDEEFSELKQFYPNDWSDRIETLSEGIELKGYKYKNYLLAIKKWAEYEGQKAD”, for which the “soluble fraction (log2)” value was -0.0354.

Regarding “HMFANQLLLTRFDLNYIKSDVLSRQIDVLGIPIKKLTIEANNKSIWLQGTSQSLSKVRELIGIIDIRENA”, the “soluble fraction (log2)” value was -3.1.

On to “HMAPRDKADKYVAAGIAEELVPILQKVGYYLVTDLKDVKAQKIQQQIGEIIKKYKLDIEKPSVQDIEGWN”, for which the “soluble fraction (log2)” value was 0.0612.

As to “HMDEKVTIPSVSGLLLSEAKTKLVDAGLTVETVYDDESKEAKDTVLSQSPLQYGKVDKGTVVTLTVSSGKG”, the “soluble fraction (log2)” value was -0.043.

On to “HMRKEDYLPIGSVINMDDRKFRVDSVDFDKDKVSLQDMALADARMPIFWEEPLTVVRELYEQQDE”, for which the “soluble fraction (log2)” value was 0.0652.

For “HMAEPEALLAMAQRILGEEVAQSLFQGAAREQGKEGYLPDPTPAFLDALEARLSGSVGAATAHAMISQLVG”, the “soluble fraction (log2)” value was -0.0483.
